# Experimental data as given in patent US20180155451A1 (published 2018).
# T1: FcgRIIa R type extracellular domain, C-terminal His tag (human, UniProt P12318 34-217)
# T1 construct: extracellular domain; also called FcγRIIa R; 2aR; not shown: His tag attached to the C terminus
# T1 sequence (looked up): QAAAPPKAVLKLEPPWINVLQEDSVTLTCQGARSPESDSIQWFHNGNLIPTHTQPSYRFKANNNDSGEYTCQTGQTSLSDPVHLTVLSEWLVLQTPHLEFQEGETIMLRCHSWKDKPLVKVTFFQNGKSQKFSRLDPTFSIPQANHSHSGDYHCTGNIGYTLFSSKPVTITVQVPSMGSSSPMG
# T2: FcgRIIa H type extracellular domain, C-terminal His tag (human, UniProt P12318 34-217)
# T2 construct: extracellular domain; also called FcγRIIa H; 2aH; not shown: His tag attached to the C terminus
# T2 sequence (looked up): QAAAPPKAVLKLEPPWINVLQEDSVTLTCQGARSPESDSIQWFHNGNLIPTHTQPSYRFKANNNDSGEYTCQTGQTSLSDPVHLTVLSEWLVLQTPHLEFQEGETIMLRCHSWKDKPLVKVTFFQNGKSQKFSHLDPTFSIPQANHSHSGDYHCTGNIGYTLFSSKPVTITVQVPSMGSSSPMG
# T3: FcgRIIb extracellular domain, C-terminal His tag (human, UniProt P31994 43-217)
# T3 construct: extracellular domain; also called FcγRIIb; 2b; not shown: His tag attached to the C terminus
# T3 sequence (looked up): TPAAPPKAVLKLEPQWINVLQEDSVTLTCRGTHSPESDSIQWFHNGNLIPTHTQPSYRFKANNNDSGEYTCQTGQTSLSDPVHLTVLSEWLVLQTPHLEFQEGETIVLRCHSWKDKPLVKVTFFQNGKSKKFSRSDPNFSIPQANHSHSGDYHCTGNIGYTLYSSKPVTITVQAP
# T4: FcgRIIb extracellular domain with C-terminal His tag (human, UniProt P31994 43-217)
# T4 construct: extracellular domain; also called FcγRIIb; not shown: His tag attached to the C terminus
# T4 sequence (looked up): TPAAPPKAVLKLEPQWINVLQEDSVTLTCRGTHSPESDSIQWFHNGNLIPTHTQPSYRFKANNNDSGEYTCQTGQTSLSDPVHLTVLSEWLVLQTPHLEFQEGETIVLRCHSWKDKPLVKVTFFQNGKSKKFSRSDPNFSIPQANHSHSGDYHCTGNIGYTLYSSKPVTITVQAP
# Legend:
# [1] = target: T5, FcgRI extracellular domain, C-terminal His tag (human, UniProt P12314 16-292); experiment: SPR (Biacore), antibody captured on chip, FcgR extracellular domain as analyte, 25 C, 1:1 Langmuir fit; experiment #3
# T5 construct: extracellular domain; also called FcγRIa; FcgRIa; not shown: His tag attached to the C terminus
# Procedure: (§1) Antibodies of interest were analyzed for the interaction to FcgR according to the method described in Reference Example 8.
# (§2) Analysis of interaction between obj ective antibody and the FcγR was carried out using Biacore T100 (GE Healthcare), Biacore T200, Biacore A100, and Biacore 4000. HBS-EP+ (GE Healthcare) was used as the running buffer, and the measurement temperature was set to 25° C. Chips produced by immobilizing the antigen peptide by the amine coupling method to a Series S sensor Chip CM5 (GE Healthcare), chips produced by allowing preliminarily biotinylated antigen peptides to interact with and immobilize onto a Series S Sensor Chip SA (certified) (GE Healthcare), chips produced by immobilizing Protein L (ACTIGEN, BioVision) to Series S Sencor Chip CM5 (GE Healthcare), or chips produced by immobilizing Protein A/G (Thermo Scientific) to Series S Sencor Chip CM5 (GE Healthcare) were used. Antibodies of interest were captured onto these chips, and allowed to interact to each FcγR diluted with running buffer. To regenerate and repeatedly use the chip, the antibodies captured onto the chip were washed off by reacting 10 mM glycine-HCl, pH 1.5.
# [2] = target: T1, FcgRIIa R type extracellular domain, …; experiment: as above
# Procedure: as §1, §2
# [3] = target: T2, FcgRIIa H type extracellular domain, …; experiment: as above
# Procedure: as §1, §2
# [4] = target: T6, FcgRIIIa V type extracellular domain, C-terminal His tag (human, UniProt P08637 17-208); experiment: as above
# T6 construct: extracellular domain; also called FcγRIIIa V; 3aV; not shown: His tag attached to the C terminus
# Procedure: as §1, §2
# [5] = target: T3, FcgRIIb extracellular domain, …; experiment: as above
# Procedure: as §1, §2
# [6] = target: T7, FcgRIIIa F type extracellular domain, C-terminal His tag (human, UniProt P08637 17-208); experiment: as above
# T7 construct: extracellular domain; also called FcγRIIIa F; 3aF; not shown: His tag attached to the C terminus
# Procedure: as §1, §2
# [7] = target: T8, FcγRIIIa extracellular domain with C-terminal His tag (human, UniProt P08637 17-208); experiment: SPR (Biacore), ratio of KD values for FcγRIIIa
# T8 construct: extracellular domain; also called FcgRIIIa; CD16A
# Source text: GpH7-A57 (SEQ ID NO: 40) resulting from the introduction of all of S239D, A330L, and I332E into GpH7-A5; GpH7-B78 (SEQ ID NO: 41) resulting from the introduction of all of S239D, A330L, and I332E into GpH7-B3; GpH7-TA7 (SEQ ID NO: 31) resulting from the introduction of all of L234Y, G236W, and S298A into GpH7-A5; and GpH7-TA45 (SEQ ID NO: 32) resulting from the introduction of all of L234Y, G236W, and S298A into GpH7-B3. […] The prepared antibodies were compared for the FcγRIIIa-binding activity using, as an indicator, KD for FcγRIIIa that was determined according to the method described in Reference Example 2.
# (§3) Analysis of interaction between objective antibody and the FcγR was carried out using Biacore T100 (GE Healthcare). HBS-EP+ (GE Healthcare) was used as the running buffer, and the measurement temperature was set to 25° C. Chips produced by immobilizing the antigen peptide by the amine coupling method to a Series S Sencor Chip CM5 (GE Healthcare), or alternatively, chips produced by allowing preliminarily biotinylated antigen peptides to interact with and immobilize onto a Series S Sensor Chip SA (certified) (GE Healthcare) were used. Antibodies of interest were captured onto an antigen peptide-immobilized chip, and allowed to interact to each FcγR diluted with running buffer. To regenerate and repeatedly use the chip, the antibodies captured on the chip were washed off by reacting 10 mM glycine-HCl, pH 1.5.
# [8] = target: T8, FcγRIIIa extracellular domain with …; experiment: SPR (Biacore), antibody captured, FcγRIIIa as analyte, 1:1 Langmuir kinetic fit
# Procedure: The prepared antibodies were compared for the FcγRIIIa-binding activity using, as an indicator, KD for FcγRIIIa that was determined according to the method described in Reference Example 2.
# as §3
# (§4) The FcγR-binding activity of each antibody was assessed primarily using as an indicator the FcγR-binding activity and dissociation constant for FcγR.
# [9] = target: T4, FcgRIIb extracellular domain with …; experiment: SPR (Biacore T100), antibody captured on antigen peptide chip, FcγR extracellular domain as analyte, kinetic analysis
# Procedure: (§5) The prepared antibodies were assayed as to the KDs for FcγRIIIa and FcγRIIb according to the method described in Reference Example 2.
# as §3, §4
# [10] = target: T9, FcgRIIIa F extracellular domain with C-terminal His tag (human, UniProt P08637 17-208); experiment: as above
# T9 construct: extracellular domain; also called FcγRIIIa F; FcγRIIIa (F158); not shown: His tag attached to the C terminus
# Procedure: as §5, §3, §4
# [11] = target: T9, FcgRIIIa F extracellular domain with …; experiment: ratio of SPR (Biacore) KDs, FcγRIIb as reference
# Procedure: as §5, §3, §4
# T9 sequence (P08637 17-208): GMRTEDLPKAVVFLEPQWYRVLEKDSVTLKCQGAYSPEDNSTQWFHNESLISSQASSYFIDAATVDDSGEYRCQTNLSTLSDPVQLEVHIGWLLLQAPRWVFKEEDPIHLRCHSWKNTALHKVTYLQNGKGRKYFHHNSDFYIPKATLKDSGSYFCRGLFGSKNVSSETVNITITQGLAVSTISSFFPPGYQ
# T8 sequence (P08637 17-208): as above
# T5 sequence (P12314 16-292): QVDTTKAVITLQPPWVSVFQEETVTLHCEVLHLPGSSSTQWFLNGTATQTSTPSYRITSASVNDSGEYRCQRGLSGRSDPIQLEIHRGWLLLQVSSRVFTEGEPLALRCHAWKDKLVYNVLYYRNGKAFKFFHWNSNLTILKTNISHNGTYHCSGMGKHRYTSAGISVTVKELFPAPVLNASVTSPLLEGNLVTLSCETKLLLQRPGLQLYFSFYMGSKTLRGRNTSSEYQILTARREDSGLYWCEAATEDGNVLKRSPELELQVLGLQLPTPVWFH
# T7 sequence (P08637 17-208): as the sequence (P08637 17-208) above
# T6 sequence (P08637 17-208 F176V limits assumed): as the sequence (P08637 17-208) above, with F160V counted along it
Binder,Kd [9] [nM],Kd [10] [nM],FcγRIIIa F/FcγRIIb ratio (KD for FcγRIIb / KD for FcγRIIIa F) [11],further results
"H240-FA021/H240-FB084/L73-k0 (antibody, human IgG1, kappa, Heterodimerized anti-epiregulin IgG1 antibody; also called H240-FA021/H240-BF084/L73-k0) heavy 1: QDQLVQSGAEVKKPGASVKVSCKASGFNIKDTYIQWVRQAPGQGLEWMGRIDPLRKQTKYREKFEGRVTITADTSTNTAYMELSSLRSEDTAVYYCVRSGREFDYWGQGTLVTVSSASTKGPSVFPLAPSSKSTSGGTAALGCLVKDYFPEPVTVSWNSGALTSGVHTFPAVLQSSGLYSLSSVVTVPSSSLGTKTYTCNVNHKPSNTKVDKKVEPKSCDKTHTCPPCPAPEYYWGPSVFLFPPKPKDTLMISRTPEVTCVVVDVSDEEPEVKFNWYVDGVEVHNAKTKPREEQYNATYRVVSVLTVLHQDWLNGKEYKCKVSNKALPAPIEKTISKAKGQPREPQVYTLPPSRKEKTKNQVSLTCLVKGFYPSDIAVEWESNGQPENNYKTTPPKLDSDGSFFLYSKLTVDKSRWQQGNVFSCSVMHEALHNRYTQKSLSLSP heavy 2: QDQLVQSGAEVKKPGASVKVSCKASGFNIKDTYIQWVRQAPGQGLEWMGRIDPLRKQTKYREKFEGRVTITADTSTNTAYMELSSLRSEDTAVYYCVRSGREFDYWGQGTLVTVSSASTKGPSVFPLAPSSKSTSESTAALGCLVEDYFPEPVTVSWNSGALTSGVHTFPAVLQSSGLYSLSSVVTVPSSNFGTQTYTCNVDHKPSNTKVDKTVEPKSCDKTHTCPPCPAPELLGGPSVFLFPPKPKDTLMISRTPEVTCVVVDVSHEEPEVQFNWYVDGVEVHNAETKPREEQYNSTYRVVSVLTVLHQDWLNGKEYKCKVSNDALPMPIEETISKAKGQPREPQVYTLPPSREEMTKNQVSLTCLVKGFYPSDIAVEWESEGQPENNYKTTPPVLDSDGSFFLYSKLTVDKSRWQQGNVFSCSVMHEALHNHYTQESLSLSP light: DIQMTQSPSSLSASVGDRVTITCRASQDIHKYIAWYQQKPGQAPRLLIQYTSTLQPGVPSRFSGSGSGTDYTFTISSLQPEDIATYYCLQYEQLRTFGGGTKVEIKRTVAAPSVFIFPPSDEQLKSGTASVVCLLNNFYPREAKVQWKVDNALQSGNSQESVTEQDSKDSTYSLSSTLTLSKADYEKHKVYACEVTHQGLSSPVTKSFNRGEC",,,,Kd [1]: 0.033 nM; Kd [2]: 230 nM; Kd [3]: 69 nM; Kd [4]: 1.3 nM; Kd [5]: 1300 nM; Kd [6]: 3.3 nM
"GpH7-G1d/GpL16-k0 (antibody, human IgG1, kappa, Anti-glypican-3 native-type human IgG1 control; also called native IgG1) heavy: not shown light: DIVMTQSPLSLPVTPGEPASISCQASESLVHSNRNTYLHWYLQKPGQSPQLLIYKVSNRFSGVPDRFSGSGSGTDFTLKISRVEAEDVGVYYCSQNTHVPPTFGQGTKVEIERTVAAPSVFIFPPSDEQLKSGTASVVCLLNNFYPREAKVQWKVDNALQSGNSQESVTEQDSKDSTYSLSSTLTLSKADYEKHKVYACEVTHQGLSSPVTKSFNRGEC",,,,KD ratio 1 (KD of GpH7-G1d/GpL16-k0 divided by KD of the antibody) [7]: 1 fold; Kd [8]: 1200 nM
"GpH7-A5/GpH7-B3/GpL16-k0 (antibody, human IgG1, kappa, also called A5/B3; HeCon Ab) heavy 1: not shown heavy 2: not shown light: DIVMTQSPLSLPVTPGEPASISCQASESLVHSNRNTYLHWYLQKPGQSPQLLIYKVSNRFSGVPDRFSGSGSGTDFTLKISRVEAEDVGVYYCSQNTHVPPTFGQGTKVEIERTVAAPSVFIFPPSDEQLKSGTASVVCLLNNFYPREAKVQWKVDNALQSGNSQESVTEQDSKDSTYSLSSTLTLSKADYEKHKVYACEVTHQGLSSPVTKSFNRGEC",3100,1600,1.9,
"GpH7-G1d/GpL16-k0 (antibody, human IgG1, kappa, Anti-glypican-3 IgG1 lacking the C-terminal Gly and Lys; also called native IgG1) heavy: not shown light: DIVMTQSPLSLPVTPGEPASISCQASESLVHSNRNTYLHWYLQKPGQSPQLLIYKVSNRFSGVPDRFSGSGSGTDFTLKISRVEAEDVGVYYCSQNTHVPPTFGQGTKVEIERTVAAPSVFIFPPSDEQLKSGTASVVCLLNNFYPREAKVQWKVDNALQSGNSQESVTEQDSKDSTYSLSSTLTLSKADYEKHKVYACEVTHQGLSSPVTKSFNRGEC",3100,1200,2.5,
"GpH7-A5/GpH7-B78/GpL16-k0 (antibody, human IgG1, kappa, S239D/A330L/I332E in one H chain only; also called A5/B78) heavy 1: not shown heavy 2: QVQLVQSGAEVKKPGASVTVSCKASGYTFTDYEMHWIRQPPGEGLEWIGAIDPKTGDTAYSESFQDRVTLTADKSTSTAYMELSSLTSEDTAVYYCTRFYSYTYWGQGTLVTVSSASTKGPSVFPLAPSSKSTSGGTAALGCLVKDYFPEPVTVSWNSGALTSGVHTFPAVLQSSGLYSLSSVVTVPSSSLGTQTYICNVNHKPSNTKVDKKVEPKSCDKTHTCPPCPAPELLGGPDVFLFPPKPKDTLMISRTPEVTCVVVDVSHEDPEVKFNWYVDGVEVHNAKTKPREEQYNSTYRVVSVLTVLHQDWLNGKEYKCKVSNKALPLPEEKTISKAKGQPREPQVYTLPPSRDELTKNQVSLTCLVKGFYPSDIAVEWESNGQPENNYKTTPPVLDSDGSFFLYSKLTVDKSRWQQGNVFSCSVMHEALHNHYTQESLSLSP light: DIVMTQSPLSLPVTPGEPASISCQASESLVHSNRNTYLHWYLQKPGQSPQLLIYKVSNRFSGVPDRFSGSGSGTDFTLKISRVEAEDVGVYYCSQNTHVPPTFGQGTKVEIERTVAAPSVFIFPPSDEQLKSGTASVVCLLNNFYPREAKVQWKVDNALQSGNSQESVTEQDSKDSTYSLSSTLTLSKADYEKHKVYACEVTHQGLSSPVTKSFNRGEC",430,54,7.9,
